In assay [1] the target is human lymphotoxin (TNFβ) (human) (UniProt P01374). As to the kind of experiment: cell-based or functional assay.
Assay [2] deals with human tumor necrosis factor-α (TNFα) (human) (UniProt P01375). The experiment in a line: cell-based or functional assay.
Chain of human tumor necrosis factor-α (TNFα) (human) (P01375 77-233): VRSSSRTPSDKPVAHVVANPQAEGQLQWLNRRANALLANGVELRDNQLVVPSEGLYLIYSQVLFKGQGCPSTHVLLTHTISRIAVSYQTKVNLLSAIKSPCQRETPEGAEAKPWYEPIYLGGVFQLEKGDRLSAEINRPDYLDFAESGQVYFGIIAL

Chain of human lymphotoxin (TNFβ) (human) (P01374 35-205 limits assumed): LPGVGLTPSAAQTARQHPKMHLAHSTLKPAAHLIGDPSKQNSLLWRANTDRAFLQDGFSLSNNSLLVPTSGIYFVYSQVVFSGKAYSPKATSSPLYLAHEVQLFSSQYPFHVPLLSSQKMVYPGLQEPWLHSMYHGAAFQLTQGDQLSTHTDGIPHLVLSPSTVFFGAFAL

In assay [1], “p75P-sf2 fusion protein (from UniProt P20333 23-204) (Fc fusion)” gave a concentration to half-inhibit human TNFβ at 2 pM (WEHI 164 cytotoxicity) of 31 pM.

B1: chimeric mouse/human IgG1 anti-platelet mAb (7E3) (antibody, INN chains, looked up, V domains shown)
VH: EVQLQQSGTVLARPGASVKMSCEASGYTFTNYWMHWVKQRPGQGLEWIGAIYPGNSDTSYIQKFKGKAKLTAVTSTTSVYMELSSLTNEDSAVYYCTLYDGYYVFAYWGQGTLVTVSA
VL: EIVLTQSPVTLSVTPGDSVSLSCRASRDISNNLHWFQQTSHESPRLLIKYASQSMSGIPSRFSGSGSGTDFTLSINSVETEDFGMYFCQQTNSWPYTFGGGTKLEIK
modifications: chimeric IgG1
On to B1, for which, in assay [2], the IL-6 secreted by FS-4 fibroblasts, TNF 0.3 ng/ml, 4 µg/ml antibody worked out at 1.6 ng/mL; the IL-6 secreted by FS-4 fibroblasts, TNF 1.5 ng/ml, 4 µg/ml antibody is 1.96 ng/mL; the IL-6 secreted by FS-4 fibroblasts, TNF 7.5 ng/ml, 4 µg/ml antibody is 2.16 ng/mL.
